Changes are numbered by the printed parent chain.

The text below walks through data of patent publication US20250281630A1 (TORAY INDUSTRIES, published 2025).

T1: human CAPRIN-1 on the cell membrane surface of human cancer cells (human, UniProt Q14444 2-709)
T1 construct: whole, on cells
T1 sequence (looked up): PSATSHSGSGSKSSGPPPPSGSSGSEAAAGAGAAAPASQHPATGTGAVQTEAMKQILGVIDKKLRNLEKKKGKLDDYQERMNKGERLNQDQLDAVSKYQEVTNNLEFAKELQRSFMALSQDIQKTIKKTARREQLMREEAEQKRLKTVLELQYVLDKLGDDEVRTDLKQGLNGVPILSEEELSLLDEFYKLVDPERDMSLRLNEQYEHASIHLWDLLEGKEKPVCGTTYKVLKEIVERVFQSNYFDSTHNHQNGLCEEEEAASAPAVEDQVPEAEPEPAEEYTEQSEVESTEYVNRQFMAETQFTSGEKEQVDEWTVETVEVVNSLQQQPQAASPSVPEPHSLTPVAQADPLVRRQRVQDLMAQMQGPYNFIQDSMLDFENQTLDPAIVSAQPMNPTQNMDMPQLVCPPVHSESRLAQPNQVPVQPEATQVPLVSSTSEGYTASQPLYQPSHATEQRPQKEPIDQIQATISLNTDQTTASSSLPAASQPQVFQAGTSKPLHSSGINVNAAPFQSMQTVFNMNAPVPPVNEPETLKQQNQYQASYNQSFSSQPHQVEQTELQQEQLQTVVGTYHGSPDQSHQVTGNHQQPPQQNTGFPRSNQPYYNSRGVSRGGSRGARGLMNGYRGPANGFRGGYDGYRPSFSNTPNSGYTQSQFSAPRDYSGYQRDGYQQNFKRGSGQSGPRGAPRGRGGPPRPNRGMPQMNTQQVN

T2: mouse CAPRIN-1 on mouse cancer cells (mouse, UniProt Q60865 2-707)
T2 construct: whole, on cells
T2 sequence (looked up): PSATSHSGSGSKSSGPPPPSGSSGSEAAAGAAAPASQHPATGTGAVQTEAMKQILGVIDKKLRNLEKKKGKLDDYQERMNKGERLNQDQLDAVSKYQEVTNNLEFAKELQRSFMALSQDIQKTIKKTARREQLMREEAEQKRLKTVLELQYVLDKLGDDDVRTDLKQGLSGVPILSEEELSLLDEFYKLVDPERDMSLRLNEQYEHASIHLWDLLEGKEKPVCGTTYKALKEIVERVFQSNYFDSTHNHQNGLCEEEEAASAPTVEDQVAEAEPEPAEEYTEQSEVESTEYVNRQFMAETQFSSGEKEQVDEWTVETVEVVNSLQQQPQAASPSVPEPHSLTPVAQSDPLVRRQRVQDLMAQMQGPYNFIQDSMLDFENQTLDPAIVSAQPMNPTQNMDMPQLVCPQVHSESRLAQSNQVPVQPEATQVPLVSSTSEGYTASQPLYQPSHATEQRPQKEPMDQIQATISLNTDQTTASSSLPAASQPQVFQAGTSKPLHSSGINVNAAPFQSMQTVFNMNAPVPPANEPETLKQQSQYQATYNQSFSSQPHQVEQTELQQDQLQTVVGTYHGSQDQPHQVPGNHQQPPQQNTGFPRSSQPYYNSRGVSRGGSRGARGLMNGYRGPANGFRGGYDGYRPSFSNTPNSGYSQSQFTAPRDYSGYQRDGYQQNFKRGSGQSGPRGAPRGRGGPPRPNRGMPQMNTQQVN

B1: Conjugate 99 (antibody, V domains shown)
VH: GAELVRSGASVKMSCKASGYSFTDYNMYWVKQTPGQGLEWIGYIYPGNGGTNYNQKFKGKATLTADTSSSTAYMQISSLTSEDSAVYFCARDYDDGGYAMDYWGQGTTVTVSS
VL: DIQMTQSPASLSASVGETVTITCRASGNIHNYLTWYQQKQGKSPQLLVYNAKTLADGVPSRFSGSGSGTQYSLKINRLQPEDFGSYYCQHFWNIPWTFGGGTKLNSR
notes: human IgG1 constant regions; also called conjugate with MMAE using humanized antibody #13
B2: Conjugate 100 (antibody, V domains shown)
VH: DAELVKPGASVKISCKASGYTFTDHSIHWVQQKPEQGLEWIGYISPGNGNIKYNEKFKGKATLTADKSSSTAYMQLNSLTSEDSAVYFCKRSLGRGGPYYFDYWGQGTTVTVSS
VL: DIVLTQAAPSLPVTPGESVSISCRSSKSLLHSNGNTYLYWFLQRPGQSPQLLIYRMSNLASGVPDRFSGSGSGTAFTLRISRVEAEDVGVYYCMQHREYPVTFGSGPN
notes: human IgG1 constant regions; also called conjugate with MMAE using humanized antibody #14
B3: Conjugate 46 (antibody, human IgG1, V domains shown)
VH: EVQLVESGGGLVQPGGSLRLSCAASGFSLSSHSLGWVRQAPGKGLEWIGDIRSGGSAYYANWAKGRFTISRDNSKNTLYLQMNSLRAEDTAVYYCTRTNGPSDLTNRLDLWGQGTLVTVSS
VL: EIVLTQSPSSLSASVGDRVTINCQASQSLYNNENLAWFQQKPGKVPKRLIYGASTLASGVSSRFSGSGSGTEFTLTISNLQPEDFATYYCLGEFSCGSADCFAFGGGTKVEIK
notes: human IgG1 constant regions; also called conjugate with MMAE using humanized antibody #40
B4: Conjugate 124 (antibody, V domains shown)
VH: B3 VH
VL: B3 VL with I2Q, T87I
notes: human IgG1 constant regions; also called conjugate with MMAE using humanized antibody #38
B5: Conjugate 122 (antibody, V domains shown)
VH: B3 VH
VL: QVLTQSPSSLSASVGDRVTINCQASQSLYNNENLAWFQQKPGKVPKRLIYGASTLASGVSSRFSGSGSGTEFTLTISSLQCEDFAIYYCLGEFSCGSADCFAFGGGTKVEIK
notes: human IgG1 constant regions; also called conjugate with MMAE using humanized antibody #36
B6: Conjugate 47 (antibody, human IgG1, V domains shown)
VH: B3 VH with Y94F
VL: B3 VL with I2Q, T87I
notes: human IgG1 constant regions; also called conjugate with MMAE using humanized antibody #41
B7: Conjugate 125 (antibody, V domains shown)
VH: B3 VH with Y94F
VL: B3 VL
notes: human IgG1 constant regions; also called conjugate with MMAE using humanized antibody #39
B8: Conjugate 127 (antibody, V domains shown)
VH: B3 VH with Y94F
VL: B3 VL with I2Q, T87I
notes: as for B6
B9: Conjugate 126 (antibody, V domains shown)
VH: B3 VH
VL: B3 VL
notes: as for B3
B10: Conjugate 95 (antibody, V domains shown)
VH: AVTLDESGGGLQTPGGALSLVCKASGFTFSGYDMLWVRQAPGKGLEWVAGIGSTGGGTDYGAAVKGRATISRDNGQSTVRLQLNNLRAEDTATYYCAKVAGGCNSGYCRDSPGSIDAWGHGTEVIVS
VL: AVTQQPASVSANPGETVKITCSGGGSRNYYGWYQQKSPGSVPVTVIYYDDQRPSNIPSRFSGALSGSTSTLTITGVQADDEAVYFCGSADSNTYEGSFGAGTTLTVL
notes: human IgG1 constant regions; also called conjugate with MMAE using humanized antibody #9

The target in the first assay is T1, human CAPRIN-1 on the cell membrane …. In words: flow cytometry, BT474 cells. On the procedure: The tube was left at 4° C. for 1 hour. After washing with PBS, Alexa 488-labeled anti-rabbit IgG (H+L) diluted 100-fold with PBS(-) containing 0.5% FBS (0.5% FBS-PBS(-)) was added thereto, and the tube was left at 4° C. for 1 hour. After washing with 0.5% FBS-PBS(-), the cells were reacted with BD Horizon Fixable Viability Stain (FVS) Reagents (FVS450, Becton, Dickinson and Company) to stain dead cells, and the fluorescence intensity was then measured using FACSFortessa™ (Becton, Dickinson and Company).
On the technique in general: A flow cytometer gives signals particle by particle.
Consider B1, for which the binding result is listed as “binds”.
Still for that read-out and setting: in the case of B2 it was “binds”.
Same read-out and setting: in the case of B3 it was “binds”.
Same read-out and setting: in the case of B4 it was “binds”.
As for B5, the binding result is on record as “binds”.
On the same count and under the same terms, the result for B6 reads “binds”.
With B7, the binding result is reported as “binds”.
In the case of B8, the binding result is “binds”.
The same measure, in the same setting: the result for B9 reads “binds”.
Still for that read-out and setting: in the case of B10 it was “binds”.

The target in another assay is T2, mouse CAPRIN-1 on mouse cancer cells. The experiment in a line: flow cytometry, Renca and 4T1 cells.
For B1, the binding result is given as “binds”.
Same read-out and setting: the result for B2 reads “binds”.
Still for that read-out and setting: the result for B3 reads “binds”; that for B4, “binds”; that for B5, “binds”.
For B6, the binding result is “binds”.
Still for that read-out and setting: in the case of B7 it was “binds”; in that of B8, “binds”.
On the same count and under the same terms, in the case of B9 it was “binds”; in that of B10, “binds”.
